Results from US20200062804A1 (ADRX, published 2020).
Non-standard residues stand in square brackets, D forms with d. No end group written: not given here.

T1: Nat1 (LTIITLE) (also: TFA salt)
T1 peptide: LTIITLE


Target: T1, Nat1 (LTIITLE)
Assay: cell-based or functional assay

IC50, Thiofiavin T aggregation assay [µM] | Binder
0.075 | [dK][dW][dR][dW][dY][dR][dR] [kwrwyrr]
7.31 | [dK][dL][dK][dW][dQ][dW] [klkwqw]
0.071 | [dK][dL][dK][dK][dL][dH] [klkklh]
23.9 | [dQ][dF][dH][dY][dK][dR][dR] [qfhylcrr]
13.2 | [dR][dM][dW][dR][dH][dH][dR] [rmwrhhr]
0.078 | [dW][dW][dR][dW][dY][dR][dR] [wwrwyrr]
39.1 | [dH][dQ][dR][dR][dY][dQ][dR] [hqrryqr]
30.9 | [dR][dF][dH][dR][dH][dH][dR] [rfhrhhr]
12.6 | [dK][dL][dK][dW][dA][dY] [klkway]

The remaining lines, values behind:

Binder | IC50, Thiofiavin T aggregation assay [µM]
IRIRAYR | 0.023
TFVFRHR | 20.3
IRIRRWR | 0.076
LTRILTH | 7.37
ILRLYFR | 8.97
IRIRRYR | 0.027
IAIRRYR | 0.074
LWIKYHR | 0.076
Ac-IRIRRYR-NH2 [Ac-IRIRRYR-NH2] | 0.069
YTIQLWH | 46
IRIRRYE | 32.8
FFRLYLR | 13.4
LRIRRYR | 0.076
LYIRYLR | 0.07
LRIYRVR | 0.081
FRLYIH | 16.4
LRIKYHR | 0.071
LTRILWH | 16.2
